The text below walks through data of paper PMC11404569, “ECT2 peptide sequences outside the YTH domain regulate its m6A-RNA binding”.

Series [1] deals with T1, ECT2-303 (Arabidopsis thaliana, UniProt Q9LJE5 303-667).
T1 sequence: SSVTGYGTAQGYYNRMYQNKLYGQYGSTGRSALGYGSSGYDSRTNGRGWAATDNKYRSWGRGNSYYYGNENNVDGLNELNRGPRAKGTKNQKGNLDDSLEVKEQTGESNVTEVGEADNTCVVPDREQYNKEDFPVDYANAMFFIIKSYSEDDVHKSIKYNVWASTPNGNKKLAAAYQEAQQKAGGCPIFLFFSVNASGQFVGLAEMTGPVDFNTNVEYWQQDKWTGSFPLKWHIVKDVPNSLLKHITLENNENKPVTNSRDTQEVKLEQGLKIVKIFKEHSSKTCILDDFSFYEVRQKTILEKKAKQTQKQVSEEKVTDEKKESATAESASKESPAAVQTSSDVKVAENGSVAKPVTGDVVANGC
Description: EMSA; up to 500 nM; EMSA: 10 nM FAM-RNA; binding buffer 10 mM HEPES pH 8.0, 50 mM KCl, 1 mM EDTA, 0.05% Triton X-100, 5% glycerol, 10 µg/mL salmon DNA, 1 mM DTT, 40 U/mL RNasin; 20 min on ice; native 8% acrylamide TBE gel at 4°C. The conditions noted are these: protein: recombinant; tags: N-terminal His-SUMO; label: 5' FAM. For orientation: In EMSA bound probe runs differently from free probe, usually more slowly.

Series [2] has as its target T2, ECT2-Fl (untagged) (Arabidopsis thaliana, UniProt Q9LJE5 1-667).
T2 sequence: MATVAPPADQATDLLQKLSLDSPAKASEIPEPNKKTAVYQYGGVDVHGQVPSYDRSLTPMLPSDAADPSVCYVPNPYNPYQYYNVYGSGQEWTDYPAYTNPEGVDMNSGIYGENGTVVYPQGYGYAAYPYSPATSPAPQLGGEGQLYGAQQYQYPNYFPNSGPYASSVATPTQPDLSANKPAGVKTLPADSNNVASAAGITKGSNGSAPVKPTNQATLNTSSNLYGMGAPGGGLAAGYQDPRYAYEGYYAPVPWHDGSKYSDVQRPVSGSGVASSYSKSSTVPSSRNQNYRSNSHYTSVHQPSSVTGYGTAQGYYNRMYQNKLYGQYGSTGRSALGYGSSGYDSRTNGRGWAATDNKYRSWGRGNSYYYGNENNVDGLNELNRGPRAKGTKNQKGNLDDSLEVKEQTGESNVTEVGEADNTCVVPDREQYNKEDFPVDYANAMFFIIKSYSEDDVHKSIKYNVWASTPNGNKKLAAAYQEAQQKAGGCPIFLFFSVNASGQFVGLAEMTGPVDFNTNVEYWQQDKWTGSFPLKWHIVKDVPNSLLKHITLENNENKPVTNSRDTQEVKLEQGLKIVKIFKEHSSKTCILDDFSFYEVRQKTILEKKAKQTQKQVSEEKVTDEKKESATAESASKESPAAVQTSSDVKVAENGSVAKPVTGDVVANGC
Described as above. The conditions noted are these: protein: recombinant; tags: none (His-SUMO cleaved by TEV); label: 5' FAM.

Series [3] addresses T3, ECT2-108 (Arabidopsis thaliana, UniProt Q9LJE5 108-667).
T3 sequence: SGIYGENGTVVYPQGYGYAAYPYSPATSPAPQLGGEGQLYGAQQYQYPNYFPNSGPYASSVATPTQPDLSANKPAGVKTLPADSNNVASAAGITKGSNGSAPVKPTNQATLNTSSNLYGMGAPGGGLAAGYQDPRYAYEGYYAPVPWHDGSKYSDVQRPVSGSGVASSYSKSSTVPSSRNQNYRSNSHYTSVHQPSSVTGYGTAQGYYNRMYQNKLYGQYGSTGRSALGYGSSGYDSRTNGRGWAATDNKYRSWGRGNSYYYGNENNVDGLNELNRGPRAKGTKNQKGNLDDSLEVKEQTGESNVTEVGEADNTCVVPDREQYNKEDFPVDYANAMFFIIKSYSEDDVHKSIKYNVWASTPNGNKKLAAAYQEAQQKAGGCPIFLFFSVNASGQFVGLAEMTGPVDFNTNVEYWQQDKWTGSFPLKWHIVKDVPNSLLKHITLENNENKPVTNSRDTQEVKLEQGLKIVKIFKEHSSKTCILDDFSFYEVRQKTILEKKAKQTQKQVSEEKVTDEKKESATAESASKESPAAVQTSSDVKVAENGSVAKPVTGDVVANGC
The description is as above. The conditions noted are these: protein: recombinant; tags: N-terminal His-SUMO; label: 5' FAM.

Series [4] has as its target T3, ECT2-108. In words: EMSA; affinity similar to ECT2-204; EMSA: 10 nM FAM-RNA; binding buffer 10 mM HEPES pH 8.0, 50 mM KCl, 1 mM EDTA, 0.05% Triton X-100, 5% glycerol, 10 µg/mL salmon DNA, 1 mM DTT, 40 U/mL RNasin; 20 min on ice; native 8% acrylamide TBE gel at 4°C. The conditions noted are these: protein: recombinant; tags: N-terminal His-SUMO; label: 5' FAM.
The target of series [5] is YTHDC1 extended YTH (hDC1) (Homo sapiens, UniProt Q96MU7 345-507). Description: EMSA; up to 400 nM; EMSA: 10 nM FAM-RNA; binding buffer 10 mM HEPES pH 8.0, 50 mM KCl, 1 mM EDTA, 0.05% Triton X-100, 5% glycerol, 10 µg/mL salmon DNA, 1 mM DTT, 40 U/mL RNasin; 20.
Series [6] concerns the target T4, ECT2-204 (Arabidopsis thaliana, UniProt Q9LJE5 204-667).
T4 sequence: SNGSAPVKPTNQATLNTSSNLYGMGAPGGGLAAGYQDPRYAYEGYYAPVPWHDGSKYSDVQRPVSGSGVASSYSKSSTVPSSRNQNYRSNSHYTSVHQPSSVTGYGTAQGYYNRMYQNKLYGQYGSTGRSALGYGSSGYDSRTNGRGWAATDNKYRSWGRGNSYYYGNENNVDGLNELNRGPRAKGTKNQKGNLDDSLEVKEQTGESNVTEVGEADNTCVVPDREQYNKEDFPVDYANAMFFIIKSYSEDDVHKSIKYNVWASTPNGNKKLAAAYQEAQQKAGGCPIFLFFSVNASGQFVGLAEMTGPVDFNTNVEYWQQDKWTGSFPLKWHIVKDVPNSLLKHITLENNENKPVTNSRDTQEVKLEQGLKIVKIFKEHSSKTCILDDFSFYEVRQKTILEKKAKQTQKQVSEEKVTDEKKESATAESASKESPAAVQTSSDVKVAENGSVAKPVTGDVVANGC
Description: EMSA; EMSA: 10 nM FAM-RNA; binding buffer 10 mM HEPES pH 8.0, 50 mM KCl, 1 mM EDTA, 0.05% Triton X-100, 5% glycerol, 10 µg/mL salmon DNA, 1 mM DTT, 40 U/mL RNasin; 20 min on ice; native 8% acrylamide TBE gel at 4°C. The conditions noted are these: protein: recombinant; tags: N-terminal His-SUMO; label: 5' FAM.

The target of series [7] is T5, ECT2-444 (Arabidopsis thaliana, UniProt Q9LJE5 444-580).
T5 sequence: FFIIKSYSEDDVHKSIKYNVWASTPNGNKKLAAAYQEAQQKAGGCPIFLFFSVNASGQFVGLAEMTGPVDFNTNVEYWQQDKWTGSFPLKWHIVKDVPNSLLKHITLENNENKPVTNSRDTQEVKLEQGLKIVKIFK
Description: EMSA; up to 800 nM; EMSA: 10 nM FAM-RNA; binding buffer 10 mM HEPES pH 8.0, 50 mM KCl, 1 mM EDTA, 0.05% Triton X-100, 5% glycerol, 10 µg/mL salmon DNA, 1 mM DTT, 40 U/mL RNasin; 20 min on ice; native 8% acrylamide TBE gel at 4°C. The conditions noted are these: protein: recombinant; tags: N-terminal His-SUMO; label: 5' FAM.

The target in series [8] is T1, ECT2-303. Description: EMSA; apparent Kd from free probe; EMSA: 10 nM FAM-RNA; binding buffer 10 mM HEPES pH 8.0, 50 mM KCl, 1 mM EDTA, 0.05% Triton X-100, 5% glycerol, 10 µg/mL salmon DNA, 1 mM DTT, 40 U/mL RNasin; 20 min on ice; native 8% acrylamide TBE gel at 4°C. The conditions noted are these: protein: recombinant; tags: N-terminal His-SUMO; label: 5' FAM.
The target of series [9] is T6, ECT2-376 (Arabidopsis thaliana, UniProt Q9LJE5 376-667).
T6 sequence: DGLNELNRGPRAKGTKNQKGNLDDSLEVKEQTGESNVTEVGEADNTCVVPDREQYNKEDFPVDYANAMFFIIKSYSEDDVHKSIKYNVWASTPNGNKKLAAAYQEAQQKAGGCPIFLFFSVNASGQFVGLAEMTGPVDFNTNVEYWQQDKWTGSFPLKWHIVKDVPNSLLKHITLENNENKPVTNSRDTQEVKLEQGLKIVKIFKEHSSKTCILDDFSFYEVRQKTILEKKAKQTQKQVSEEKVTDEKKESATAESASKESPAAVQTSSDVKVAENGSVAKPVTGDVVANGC
Description: EMSA; no stable complex; EMSA: 10 nM FAM-RNA; binding buffer 10 mM HEPES pH 8.0, 50 mM KCl, 1 mM EDTA, 0.05% Triton X-100, 5% glycerol, 10 µg/mL salmon DNA, 1 mM DTT, 40 U/mL RNasin; 20 min on ice; native 8% acrylamide TBE gel at 4°C. The conditions noted are these: protein: recombinant; tags: N-terminal His-SUMO; label: 5' FAM.

The target in series [10] is T7, ECT2-424 (His-SUMO) (Arabidopsis thaliana, UniProt Q9LJE5 424-610).
T7 sequence: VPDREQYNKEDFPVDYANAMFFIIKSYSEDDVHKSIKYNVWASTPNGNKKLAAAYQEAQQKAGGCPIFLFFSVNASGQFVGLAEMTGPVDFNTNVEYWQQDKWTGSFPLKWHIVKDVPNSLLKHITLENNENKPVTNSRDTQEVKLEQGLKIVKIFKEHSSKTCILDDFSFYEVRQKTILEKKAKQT
The description is as above. The conditions noted are these: protein: recombinant; tags: N-terminal His-SUMO; label: 5' FAM.

B1: Probe I (A) (ssRNA)
RNA: AUGGGCCGUUCAUCUGCUAAAAGGACUGCUUUUGGGGCUUGU
modifications: thiol-protected 3' bases (*G*U)
For B1, the binding result in [1], in series [2] and in [3] was “no binding” each time.

B2: Probe I m6A (ssRNA)
RNA: AUGGGCCGUUCAUCUGCUAAAAGGACUGCUUUUGGGGCUUGU
modifications: m6A at position 25; thiol-protected 3' bases (*G*U)
Consider B2, for which the values for the binding signal in [4] and in [6] were around 3 fold Kd vs ECT2-Fl and around 5 fold Kd vs ECT2-303, respectively. Moreover, the binding result in series [5] is “binds”; in series [7] it was “no binding”. The Kd in series [8] amounted to 55 ± 7 nM.

B3: Probe III (A) (ssRNA)
RNA: AAGGGCCGAACAACAGCAAAAAGGACUGCAAAAGGGGCAAGA
modifications: thiol-protected 3' bases (*G*A)
Take B3: the binding result in series [1], in series [9] and in series [10] was “no binding” throughout.

B4: Probe III m6A (ssRNA)
RNA: AAGGGCCGAACAACAGCAAAAAGGACUGCAAAAGGGGCAAGA
modifications: m6A at position 25; thiol-protected 3' bases (*G*A)
On to B4, for which the Kd in [8] was found to be 39 ± 2 nM.

B5: Probe IV (A) (ssRNA)
RNA: AUGUGUCUUUCAUGUACUAAAAGGACUGCUCUUGUGUCUUGU
modifications: thiol-protected 3' bases (*G*U)
B5: the binding result in [9] and in [10] was “no binding” in each case.

B6: Probe IV m6A (ssRNA)
RNA: AUGUGUCUUUCAUGUACUAAAAGGACUGCUCUUGUGUCUUGU
modifications: m6A at position 25; thiol-protected 3' bases (*G*U)
For B6, the Kd in series [8] was determined as 85 ± 5 nM.
